± gives the standard deviation.
Test: protein stability index of a GFP-peptide fusion (GPS, HEK-293T) (PSI 1-6); higher = more stable
Settings: c terminus: a fixed tail appended
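Further: 24-mer peptide tiles fused after GFP, lentivirally expressed, FACS-sorted into six equal bins by GFP/DsRed ratio, decoded by Illumina sequencing, PSI is the read-weighted mean bin number.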

Sequence	protein stability index (treatment: DMSO)	protein stability index (treatment: MLN4924 1 uM, 8 h)
EECRMSGEFPSPVSISIISSTSGG [KRT71]	3.59 ± 0.25	3.6 ± 0.4
TSDVYSSDAAFGGILERYWLSSRA [MYORG]	2.62 ± 0.11	2.47 ± 0.092
DLNRHLDEMCANNDFVQVDPGQVG [FAN1]	4.29 ± 0.4	4.63 ± 0.058
QGRKIAEVCCTSIVYATEKKQTKV [KCTD13]	3.39 ± 0.15	3.61 ± 0.28
AIIISTIVLDRALHIPMYFFLAIL [OR10K2]	3.04 ± 0.47	3.04 ± 0.33
LNCPFCGARLGGFNFVSTPKCSCG [RNF180]	2.25 ± 0.51	3.28 ± 0.38
EDHIDDAKYCGHLYGLGSGSSYVQ [CNOT7]	3.38 ± 0.16	3.41 ± 0.26
LPGNTTEATPRSLRASGSLCGPHA	4.46 ± 0.38	4.28 ± 0.3
GSSIPWNHLPDPEIFRQRFRQFGY [ZNF24]	2.49 ± 0.25	2.66 ± 0.14
FLIGAYAVIYLKKTPEEAYRALLS [CDC14A]	2.71 ± 0.8	2.7 ± 0.6
AQFRLLSEVEELNMSLTALREKLL [TEKT4]	2.23 ± 0.43	2.62 ± 0.45
NSNTPVDDFHTNDVCSFPNALVTK [FEM1B]	4.68 ± 0.26	4.5 ± 0.18
FEGRTPMHVACQHGQENIVRILLR [RIPK4]	2.95 ± 0.49	2.95 ± 0.2
FTQPLLPAFTVWCGSFQVTTGLQV [FSD1]	3 ± 0.12	3.03 ± 0.5
VSDRLAPGAPRGNPPKASAAPDCT [MYCL]	4.94 ± 0.22	4.95 ± 0.19
VWVTHEEMETLETSTKTDSEEGSW [PPFIA4]	4.19 ± 0.29	4.68 ± 0.22
EAGNEFKNIFGTPEFVAPEIVNYE [DAPK3]	4.02 ± 0.1	4.66 ± 0.1
LYKEELEQTYHAKLENARLSSEMN [LMNB1]	3.21 ± 0.64	3.62 ± 0.25
LDLSKNKLQQLPADFGRLVNLQHL [LRRC59]	2.54 ± 0.33	2.63 ± 0.26
VLLIKDRTSKSRGFAFITFENPAD [RBMY1A1]	2.83 ± 0.88	3.06 ± 1.5
GALETRSLKDHKVSFLRSGTKLIF [C2CD2L]	2.13 ± 0.24	2.1 ± 0.42
TADRIIRVYDGREILTCGRDGEPE [RBBP5]	4.55 ± 0.12	4.49 ± 0.31
DVVKTQRQVALGAMEAVRVNPLHV [SLC25A39]	3.05 ± 0.22	3.23 ± 0.13

Sequence	protein stability index (treatment: DMSO)	protein stability index (treatment: MLN4924 1 uM, 8 h)
DPLTYKSRLMVVVKMDSSIQPGPF [RHOBTB2]	2.05 ± 0.53	2.08 ± 0.25
EPGRLYLDLILAILALELICSLIC [TMEM192]	2.35 ± 0.49	2.21 ± 0.34
SAPEQELLVQDATPVSNSLLPEKA [GFOD1]	5.29 ± 0.28	5.4 ± 0.26
AAQPMQPLPESLASLHPSVSPGSP [PLAGL1]	5.2 ± 0.12	5.17 ± 0.29
VMSIPDVIRLKQEQHVHNEKSVLK [PRKX]	4.18 ± 0.15	4.25 ± 0.12
PEERLEKQNEKLNNQEEETEFKEL [CCDC89]	5.67 ± 0.11	5.48 ± 0.29
TGIVNHTHSRMGSIMSTGIVQGSS [CARM1]	3.12 ± 0.2	3.5 ± 0.63
CMAFELATGDYLFEPHSGEDYSRD [SRPK2]	3.87 ± 0.47	4.12 ± 0.25
NNLLSAPPPDVTQLTPPSHDLTDN [ANKRD17]	5.12 ± 0.28	5.18 ± 0.18
CTMEPEPVQPGMLIDVCKYLGSLQ [TRIM35]	2.43 ± 0.13	2.41 ± 0.22
AVKGSLGSDLGGPLPTDPMLGLAL [TSPAN10]	3.16 ± 0.17	3.06 ± 0.12
LSRLSLMAMPNGFHEDGPQGPGGD [PSD2]	4.89 ± 0.15	4.62 ± 0.13
YETKYVVLSYLGLLSQEKLQEQHL [BCL2L13]	2.63 ± 0.49	2.62 ± 0.46
QTLDVNRDGGLCVNDLAVGLRRLG [SLC25A25]	2.98 ± 0.23	3.18 ± 0.3
RDDLEALGHMFMYFLRGSLPWQGL [CSNK1G3]	3.19 ± 0.37	2.93 ± 0.15
EKVKACQGQYETIERLRSLSPKIM [TBC1D10A]	3.02 ± 0.28	3.23 ± 0.16
WGYIRYSGQYRELGGAIDFGAAYV [ATL3]	2.56 ± 0.68	2.53 ± 0.69
KVIDDTNITRLQLETEIEALKEEL [KRT18]	4.2 ± 0.18	4.36 ± 0.23
ELEIELQSQLSMKAGLENSLAETE [KRT15]	4.77 ± 0.33	4.75 ± 0.25
TLMTMAIRIIDRALKEDFGFKHRL [PRIM1]	2.99 ± 0.62	2.9 ± 0.54
RVMMASASDYFKAMFTGGMKEQDL [KLHL13]	2.91 ± 0.58	2.82 ± 0.091
EGVSLTAVLTTHHHWDHARGNPEL [HAGHL]	2.72 ± 0.27	2.87 ± 0.42
YLRKGRGETRICKIYDSPCLPEAE [RAD51]	3.65 ± 0.22	3.83 ± 0.28

Sequence	protein stability index (treatment: DMSO)	protein stability index (treatment: MLN4924 1 uM, 8 h)
KPEDTAEDLTAKRKRMKMDKTCSK [FAM9B]	5.3 ± 0.2	5.43 ± 0.11
ERSDLEEDNEREGTENGAIDAVPV [ZC3H15]	5.5 ± 0.19	5.5 ± 0.33
QNPVLSKLLMADQDSPLDLTVRKS [LCOR]	4.14 ± 0.27	4.25 ± 0.21
QVKASSPVPATPILQLEECCTHNN [TRIM9]	4.9 ± 0.21	4.923 ± 0.028
KPDSVGLPPCAVRNLQDLARIYIR [PCMTD1]	2.94 ± 0.085	2.85 ± 0.1
TYEEAAAYIQCQFEDLNKRKDTKE [GNAI1]	4.61 ± 0.15	4.67 ± 0.12
DPYLSYRWKRRRSYSREHEGRLRY [CLK3]	3.54 ± 0.33	3.57 ± 0.56
EEINKNISDFGRQQLLPPFPSLHQ [EHMT1]	3.08 ± 0.27	3.64 ± 0.4
AYACLVCGKYFQGRGLKSHAYIHS [USP39]	2.29 ± 0.27	2.51 ± 0.52
LTKLREMGREKCHQYWPAERSARY [PTPRD]	2.33 ± 0.21	2.9 ± 0.45
NYPYDKSFEHRVRGVRRTASTPTP [CPN1]	4.05 ± 0.4	4.14 ± 0.23
YSAPPGDPLSTNYSLAPNTPINQN [NFE2L1]	4.48 ± 0.27	4.54 ± 0.2
PLGLEVDQFLEDVRLQERTSGGLL [NOP53]	4.42 ± 0.14	4.47 ± 0.12
VLETKWELLQQLDLNNCKNNLEPI [KRT71]	3.2 ± 0.17	3.17 ± 0.29
PCCSSSPEEPLNGESYESCCPTSR [FEM1A]	4.28 ± 0.22	4.64 ± 0.31
SAPPTSRTSSGNVWVTHEEMETLE [PPFIA4]	5.12 ± 0.29	4.88 ± 0.39
DSDEATAARLLFNMAGVTFRKFIP [DCTD]	2.55 ± 0.19	2.58 ± 0.59
DGLKRRQQLEEELLRAKIEVEKLK [RAD54B]	4.67 ± 0.31	4.85 ± 0.32
QRHPRLRPQSAQSSFPPSPGPSPD [AUP1]	4.76 ± 0.21	4.97 ± 0.18
PKLREETAHMLGVRELRIAFREFD [CABP4]	2.92 ± 0.29	3.17 ± 0.29
DLSAANEKNLLLQNQVDELERKFR [LRRC45]	3.96 ± 0.38	4.08 ± 0.62
EGGGTSLHVACELARPECLFLLLG [ANKRD9]	2.03 ± 0.091	2.06 ± 0.67
RAHAEIRKMSLLKFLAKVNGSDPR [MAGEA10]	2.37 ± 0.26	2.57 ± 0.58

Sequence	protein stability index (treatment: DMSO)	protein stability index (treatment: MLN4924 1 uM, 8 h)
YIIQQGGWGTVFSLESEEEEYPGI [BCL2L13]	2.46 ± 0.36	2.9 ± 0.36
FSTYTSDKDENKLSEASGGRAENG [ZC3H15]	5.38 ± 0.44	5.23 ± 0.58
PPQPMVPLAVENQAGGEGAGGELG [PBXIP1]	5.52 ± 0.11	5.51 ± 0.12
LTSELDPEKEQEIETIKIIETEDQ [MIA2]	4.84 ± 0.051	5.46 ± 0.33
DWVMWAVNEFSLKGVDFQKFCMNG [ETS1]	3.16 ± 0.39	3.05 ± 0.47
FLSYYRLTRFLSRVIKCDPDCLRA [CCND1]	2.23 ± 0.56	2.25 ± 0.54
GCGADSKKKRPPQPPEESQPPQSQ [PLK2]	5.52 ± 0.35	5.53 ± 0.18
VSGLDSSYLREQMLNEPLVREIVK [GAN]	3.14 ± 0.26	2.96 ± 0.25
ENIDSLYNVNLSKGRAALSATVPR [SCNN1D]	3.94 ± 0.39	4.04 ± 0.24
KILEVVGRYSVHNAGISFSVKKQG [MLH1]	2.19 ± 0.93	1.91 ± 0.51
EQWDRLLVLYPTSLAIFSEELDGL [PLEKHN1]	2.37 ± 0.3	2.44 ± 0.43
ILINNGSRIKGWWVFHHYVSTFLS [TMEM120A]	2.17 ± 0.64	2.38 ± 0.42
SGLQGLPECTRCGHGIVGTIVKAR [PDLIM4]	2.51 ± 0.32	2.64 ± 0.34
LESVNHCHLNGIVHRDLKPENLLL [CAMK2D]	2.85 ± 0.34	2.98 ± 0.41
LCLLVAWSIVGMAVVKGIQSSGKV [SLC6A17]	2.76 ± 0.49	2.84 ± 0.21
EEETYKCLECGKSFCHGSSLKRHL [ZNF449]	3.77 ± 0.5	3.78 ± 0.79
EYDYLFKVVLIGDSGVGKSNLLSR [RAB11A]	2.6 ± 0.65	2.39 ± 0.7
AEEESSGGEEEDEDENIEVVYSKA [EIF5]	5.22 ± 0.17	5.25 ± 0.16
QSFCGENIMMPMGGMMPPGPGIPP [ZNF207]	3.15 ± 0.31	3.27 ± 0.26
IDDLFAFVIKMPVMYRIGCLRDDV [CLPTM1]	3.07 ± 0.97	3.2 ± 0.74

Reference: the supplement of paper PMC10567573
